The values that follow come from doi:10.1101/2021.09.12.459968 (bioRxiv, 2021).

Data set [1] addresses full-length mouse NLRP3 (FLAG-mScarlet tag removed), double ring cage (mouse, UniProt Q8R4B8 1-1033). Briefly: co-sedimentation.
Data set [2] concerns the molecule itself. Briefly: negative-staining electron microscopy.

B1: recombinant full-length mouse NEK7 (enzyme)
chain: not shown
As for B1, the binding result in data set [1] was “binds”.

B2: mouse NLRP3 LRRm6 (K970E_Q1001R_F1029A) (natural protein)
chain: MTSVRCKLAQYLEDLEDVDLKKFKMHLEDYPPEKGCIPVPRGQMEKADHLDLATLMIDFNGEEKAWAMAVWIFAAINRRDLWEKAKKDQPEWNDTCTSHSSMVCQEDSLEEEWMGLLGYLSRISICKKKKDYCKMYRRHVRSRFYSIKDRNARLGESVDLNSRYTQLQLVKEHPSKQEREHELLTIGRTKMRDSPMSSLKLELLFEPEDGHSEPVHTVVFQGAAGIGKTILARKIMLDWALGKLFKDKFDYLFFIHCREVSLRTPRSLADLIVSCWPDPNPPVCKILRKPSRILFLMDGFDELQGAFDEHIGEVCTDWQKAVRGDILLSSLIRKKLLPKASLLITTRPVALEKLQHLLDHPRHVEILGFSEAKRKEYFFKYFSNELQAREAFRLIQENEVLFTMCFIPLVCWIVCTGLKQQMETGKSLAQTSKTTTAVYVFFLSSLLQSRGGIEEHLFSDYLQGLCSLAADGIWNQKILFEECDLRKHGLQKTDVSAFLRMNVFQKEVDCERFYSFSHMTFQEFFAAMYYLLEEEAEGETVRKGPGGCSDLLNRDVKVLLENYGKFEKGYLIFVVRFLFGLVNQERTSYLEKKLSCKISQQVRLELLKWIEVKAKAKKLQWQPSQLELFYCLYEMQEEDFVQSAMDHFPKIEINLSTRMDHVVSSFCIKNCHRVKTLSLGFFHNSPKEEEEERRGGRPLDQVQCVFPDTHVACSSRLVNCCLTSSFCRGLFSSLSTNRSLTELDLSDNTLGDPGMRVLCEALQHPGCNIQRLWLGRCGLSHQCCFDISSVLSSSQKLVELDLSDNALGDFGIRLLCVGLKHLLCNLQKLWLVSCCLTSACCQDLALVLSSNHSLTRLYIGENALGDSGVQVLCEKMKDPQCNLQKLGLVNSGLTSICCSALTSVLKTNQNFTHLYLRSNALGDTGLRLLCEGLLHPDCKLQMLELDNCSLTSHSCWNLSTILTHNHSLRELNLGNNDLGDLCVVTLCEVLKQQGCLLQSLRLGEMYLNRETKRALEALQEEKPELTIVAEISW
For the molecule B2, the binding result in data set [2] is on record as “binds”.
